Measured values published in patent US20210214460A1 (AstraZeneca / MedImmune, published 2021).
Read-outs that look alike come from different tables or passages of the source.

Key:
[1] = biological target: soluble BCMA (sBCMA) in conditioned media collected from Ad293 cells expressing human BCMA (human) (UniProt Q02223); test: cell-based or functional assay
[2] = biological target: T1, membrane-bound human BCMA (human, UniProt Q02223 1-184); test: cell-based or functional assay
T1 sequence (looked up): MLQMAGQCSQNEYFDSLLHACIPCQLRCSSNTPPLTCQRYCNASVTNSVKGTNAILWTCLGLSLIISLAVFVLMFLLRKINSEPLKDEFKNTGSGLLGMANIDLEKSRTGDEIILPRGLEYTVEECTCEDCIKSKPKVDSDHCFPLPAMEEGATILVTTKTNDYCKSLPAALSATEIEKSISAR

[3] = biological target: T2, monomeric human sBCMA (GenScript) (human, UniProt Q02223 1-54); test: SPR (ProteOn XPR36), antibody captured by anti-Fc, sBCMA 100-6.25 nM as analyte
T2 construct: extracellular domain; also called monomeric BCMA; monomeric (soluble) BCMA
T2 sequence (looked up): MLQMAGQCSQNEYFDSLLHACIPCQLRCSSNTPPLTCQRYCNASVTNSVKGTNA
Procedure: The binding of 15B2GL monoclonal antibody and optimized clones I09, L15, P10, N22, and M02 (described in Example 1) was assessed using monomeric human sBCMA (GenScript, Piscataway, N.J.) using a ProteOn™ XPR36 instrument (Bio-Rad, Hercules, Calif.). The binding of J6M0 also was assessed for comparison. Standard amine coupling was used to immobilize 25 μg/ml anti-Fc polyclonal antibody (Jackson ImmunoResearch, West Grove, Pa.) prepared in 10 mM sodium acetate buffer (pH 4.5) to the surface of a ProteOn™ GLC biosensor chip (Bio-Rad, Hercules, Calif.) pre-activated with 20 mM EDAC (1-ethyl-3-(3-dimethylaminopropyl)carbodiimide hydrochloride) and 5 mM Sulfo-NHS (N-hydroxysulfosuccinimide) at a density of ˜200-600 resonance units (RU). 15B2GL, I09, L15, P10, N22, M02, and J6M0 were subsequently injected at a concentration of 1 μg/ml for capture by the immobilized anti-Fc polyclonal antibody. The sensorgram was recorded by flowing two-fold serial dilutions of sBCMA prepared in PBS (pH 7.4) with 0.005% (v/v) Tween®-20, ranging from 100-6.25 nM, over the captured surface for 150 seconds at 75 μL/minute with dissociation time of 600 seconds. ProteOn™ data analysis software was used to analyze the data.

[4] = biological target: T1, membrane-bound human BCMA; test: flow cytometry on MM.1S cells (endogenous BCMA), printed as apparent affinity
Procedure: (§1) Binding of 15B2GL, I09, L15, and J6M0 to membrane-bound human BCMA was evaluated using flow cytometry in multiple myeloma and plasma cell leukemia cell lines that endogenously express BCMA (NCI-H929 and MM.1S, respectively). Binding of 15B2GL, 109, L15 to membrane-bound human BCMA was also evaluated in Ad293 cells expressing human BCMA. Binding assays were performed by incubating the anti-BCMA antibodies with 200,000 cells for 30 minutes at 4° C. followed by two washes with PBS+2% FBS (FACS Buffer). A range of antibody concentrations were evaluated using a 12-point, 3-fold dilution series. Cells were then incubated with 5 ug/mL goat-anti human IgG-AF647 secondary antibodies (Thermo Fisher Scientific, Waltham, Mass.) at 4° C., followed by two washes in PBS+2% FBS. Cells were resuspended in 200 uL PBS+2% FBS+DAPI.
(§2) Fluorescence of live, single cells was measured using a BD Biosciences LSRII cytometer and BD FACSDiva™ software (BD Biosciences, San Jose, Calif.). Data were analyzed using FlowJo™ software (FlowJo, LLC, Ashland, Oreg.). Mean fluorescence intensity values were used to determine percentage bound and EC50 was determined using Prism™ software (GraphPad Software Inc, La Jolla, Calif.).

[5] = biological target: T1, membrane-bound human BCMA; test: flow cytometry on NCI-H929 cells (endogenous BCMA), printed as apparent affinity
Procedure: as §1, §2

[6] = biological target: T3, soluble BCMA (sBCMA) in conditioned media collected from Ad293 cells expressing human BCMA (human, UniProt Q02223 1-54); test: cell-based or functional assay
T3 sequence (looked up): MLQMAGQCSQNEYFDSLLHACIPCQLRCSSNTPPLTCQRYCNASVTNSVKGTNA

[7] = biological target: T1, membrane-bound human BCMA; test: cell-based or functional assay; remark: listed apart in the source
[8] = biological target: T1, membrane-bound human BCMA; test: cell-based or functional assay; remark: listed apart in the source

B1: J6M0-SG3249 antibody-drug conjugate (antibody, INN chains, looked up, V domains shown)
VH: QVQLVQSGAEVKKPGSSVKVSCKASGGTFSNYWMHWVRQAPGQGLEWMGATYRGHSDTYYNQKFKGRVTITADKSTSTAYMELSSLRSEDTAVYYCARGAIYDGYDVLDNWGQGTLVTVSS
VL: DIQMTQSPSSLSASVGDRVTITCSASQDISNYLNWYQQKPGKAPKLLIYYTSNLHSGVPSRFSGSGSGTDFTLTISSLQPEDFATYYCQQYRKLPWTFGQGTKLEIK
modifications: SG3249 (tesirine) drug payload
Fold loss of potency, killing of MM.1S cells with 0 ng/mL sBCMA (reference) [1]: 1 fold | Fold loss of potency, killing of MM.1S cells with 75 ng/mL sBCMA [1]: 2.66 fold | Fold loss of potency, killing of MM.1S cells with 270 ng/mL sBCMA [1]: 6.7 fold | Fold loss of potency, killing of MM.1S cells with 720 ng/mL sBCMA [1]: 19.3 fold | IC50 (ng/mL) of killing of MM.1S cells with 0 ng/mL sBCMA [2]: 4.82 ng/mL | IC50 (ng/mL) of killing of MM.1S cells with 75 ng/mL sBCMA [2]: 12.8 ng/mL | IC50 (ng/mL) of killing of MM.1S cells with 270 ng/mL sBCMA [2]: 32.3 ng/mL | IC50 (ng/mL) of killing of MM.1S cells with 720 ng/mL sBCMA [2]: 92.9 ng/mL

B2: anti-BCMA antibody J6M0 (antibody, V domains shown)
VH: QVQLVQSGAEVKKPGSSVKVSCKASGGTFSNYWMHWVRQAPGQGLEWMGATYRGHSDTYYNQKFKGRVTITADKSTSTAYMELSSLRSEDTAVYYCARGAIYDGYDVLDNWGQGTLVTVSS
VL: DIQMTQSPSSLSASVGDRVTITCSASQDISNYLNWYQQKPGKAPKLLIYYTSNLHSGVPSRFSGSGSGTDFTLTISSLQPEDFATYYCQQYRKLPWTFGQGTKLEIK
Kd [3]: 1 nM | EC50 [4]: 6.65 nM | EC50 [5]: 6.02 nM

B3: J6M0-mc-MMAF antibody-drug conjugate (antibody, INN chains, looked up, V domains shown)
VH: QVQLVQSGAEVKKPGSSVKVSCKASGGTFSNYWMHWVRQAPGQGLEWMGATYRGHSDTYYNQKFKGRVTITADKSTSTAYMELSSLRSEDTAVYYCARGAIYDGYDVLDNWGQGTLVTVSS
VL: DIQMTQSPSSLSASVGDRVTITCSASQDISNYLNWYQQKPGKAPKLLIYYTSNLHSGVPSRFSGSGSGTDFTLTISSLQPEDFATYYCQQYRKLPWTFGQGTKLEIK
modifications: mc-MMAF drug payload
Fold loss of potency, killing of MM.1S cells with 0 ng/mL sBCMA (reference) [1]: 1 fold | Fold loss of potency, killing of MM.1S cells with 75 ng/mL sBCMA [1]: 1.9 fold | Fold loss of potency, killing of MM.1S cells with 270 ng/mL sBCMA [1]: 5.45 fold | Fold loss of potency, killing of MM.1S cells with 720 ng/mL sBCMA [1]: 49.8 fold | IC50 (ng/mL) of killing of MM.1S cells with 0 ng/mL sBCMA [2]: 29.3 ng/mL | IC50 (ng/mL) of killing of MM.1S cells with 75 ng/mL sBCMA [2]: 55.5 ng/mL | IC50 (ng/mL) of killing of MM.1S cells with 270 ng/mL sBCMA [2]: 160 ng/mL | IC50 (ng/mL) of killing of MM.1S cells with 720 ng/mL sBCMA [2]: 1460 ng/mL

B4: 15B2GL-SG3249 antibody-drug conjugate (antibody, V domains shown)
VH: EVQLVESGGGLVKPGGSLRLSCAASGFTFRSYSMNWVRQAPGKGLEWVSSISGSSNYIYYADSVKGRFTISRDNAKNSLYLQMNSLRAEDTAVYYCARGGNYYVEYFQYWGQGTLVTVSS
VL: EIVLTQSPGTLSLSPGERATLSCRASQYISSNYLAWYQQKPGQAPRLLIYGASNRATGIPDRFSGSGSGTDFTLTISRLEPEDFAVYYCQQYGSSPITFGQGTKLEIK
modifications: PBD payload SG3249 conjugated site-specifically; residue not stated; DAR 1.82
Fold loss of potency, killing of MM.1S cells with 0 ng/mL sBCMA (reference) [6]: 1 fold | Fold loss of potency, killing of MM.1S cells with 75 ng/mL sBCMA [6]: 1.11 fold | Fold loss of potency, killing of MM.1S cells with 270 ng/mL sBCMA [6]: 1.58 fold | Fold loss of potency, killing of MM.1S cells with 720 ng/mL sBCMA [6]: 2.01 fold | IC50 (ng/mL) of killing of MM.1S cells with 0 ng/mL sBCMA [7]: 14.5 ng/mL | IC50 (ng/mL) of killing of MM.1S cells with 75 ng/mL sBCMA [7]: 16.1 ng/mL | IC50 (ng/mL) of killing of MM.1S cells with 270 ng/mL sBCMA [7]: 22.9 ng/mL | IC50 (ng/mL) of killing of MM.1S cells with 720 ng/mL sBCMA [7]: 29.1 ng/mL | IC50 (ng/mL), in vitro cytotoxicity (CellTiter-Glo, 96 h), EJM cells [8]: 153 ng/mL | IC50 (ng/mL), in vitro cytotoxicity (CellTiter-Glo, 96 h), JJN-3 cells [8]: 36.3 ng/mL | IC50 (ng/mL), in vitro cytotoxicity (CellTiter-Glo, 96 h), L-363 cells [8]: 31.4 ng/mL | IC50 (ng/mL), in vitro cytotoxicity (CellTiter-Glo, 96 h), MM.1R cells [8]: 8.64 ng/mL | IC50 (ng/mL), in vitro cytotoxicity (CellTiter-Glo, 96 h), MM.1S cells [8]: 26.8 ng/mL | IC50 (ng/mL), in vitro cytotoxicity (CellTiter-Glo, 96 h), NCI-H929 cells [8]: 5.99 ng/mL | IC50 (ng/mL), in vitro cytotoxicity (CellTiter-Glo, 96 h), OPM-2 cells [8]: 201 ng/mL | IC50 (ng/mL), in vitro cytotoxicity (CellTiter-Glo, 96 h), U266B1 cells [8]: 39.7 ng/mL

B5: I09-SG3249 antibody-drug conjugate (antibody, V domains shown)
VH: EVQLVESGGGLVKPGGSLRLSCAASGFTFSSYSMNWVRQAPGKGLEWVSSISGSSNYIYYADSVKGRFTISRDNAKNSLYLQMNSLRAEDTAVYYCARGGNYFVEYFQQWGQGTLVTVSS
VL: EIVLTQSPGTLSLSPGERATLSCRASQYISSNYLAWYQQKPGQAPRLLIYGASNRATGIPDRFSGSGSGTDFTLTISRLEPEDFAVYYCQQYSSDPITFGQGTKLEIK
modifications: PBD payload SG3249 conjugated site-specifically; residue not stated; DAR 1.82
Fold loss of potency, killing of MM.1S cells with 0 ng/mL sBCMA (reference) [6]: 1 fold | Fold loss of potency, killing of MM.1S cells with 75 ng/mL sBCMA [6]: 1.35 fold | Fold loss of potency, killing of MM.1S cells with 270 ng/mL sBCMA [6]: 1.98 fold | Fold loss of potency, killing of MM.1S cells with 720 ng/mL sBCMA [6]: 5.75 fold | IC50 (ng/mL) of killing of MM.1S cells with 0 ng/mL sBCMA [7]: 2.81 ng/mL | IC50 (ng/mL) of killing of MM.1S cells with 75 ng/mL sBCMA [7]: 3.79 ng/mL | IC50 (ng/mL) of killing of MM.1S cells with 270 ng/mL sBCMA [7]: 5.55 ng/mL | IC50 (ng/mL) of killing of MM.1S cells with 720 ng/mL sBCMA [7]: 16.2 ng/mL
